The text below walks through data of patent publication US8663912B2, “Fluorogenic substrate for ADAMTS13” (Washington University, priority 2011, dated 2014).

The data set is described as follows: Solubility of substrate in water. It counts as physicochemical. Conditions: sodium salt. From the text: The present inventors have tested several combinations of donor and quencher groups chosen for lack of interference from blood proteins. For example, modification at Cys^1610 with Alexa Fluor 594 maleimide (abs 590 nm, em 617 nm, ε 96,000) and at N-terminal. […] In one embodiment, a substrate of the present teachings is modified at Cys^1610 with DyLight 633-maleimide (Thermo, abs 638 nm, em 658 nm, ε 170,000), and at N-terminal Gly with IRDye QC-1 N-hydroxysuccinimidyl ester (LI-COR, abs 737 nm, ε 96,000). […] After RP-HPLC purification the doubly-labeled substrate (FRETS-rVWF71) is soluble at >50 μM.
In these experiments, DyLight 633 maleimide (Thermo Scientific, Waltham, Mass.) 1 mg/100 μL in dimethyl sulfoxide (DMSO) was added dropwise with stirring to peptide VWF71 (10 mg) in ≦2 mL of 100 mM sodium phosphate, pH 7.1, in the dark, and stirred overnight at room temperature. The product DyLight 633-rVWF71 was purified by HPLC on C18 using the TEAA/acetonitrile solvent system as described for the purification of VWF71. DyLight 633-rVWF71 was lyophilized and desalted on a small column of PD-10 in ≦2 mL of 100 mM sodium phosphate, pH 7.9. IRDye QC-1 N-hydroxysuccinimide ester 0.5 mg in 100 μL DMSO was added dropwise with stirring and the solution was stirred overnight at room temperature protected from light. […]

* marks the point of attachment. X1 = CC1(C)C(/C=C/C2=C(Cl)C(=C/C=C3/N(CCCCCC(=O)*)c4ccc5cc(S(=O)(=O)O)ccc5c4C3(C)C)/CCC2)=[N+](CCCS(=O)(=O)[O-])c2ccc(N(CCCS(=O)(=O)O)CCCS(=O)(=O)O)cc21; X2 = CC(C)(C)c1cc(/C=C/C=C2\N(CCCS(=O)(=O)O)c3ccc(S(=O)(=O)O)cc3C2(C)CCCC(=O)CCN2C(=O)CC(*)C2=O)c2ccc(N(CCCS(=O)(=O)[O-])CCCS(=O)(=O)O)cc2[o+]1 Bounds are passed on as bounds.

Regarding “X1-GQAPNLVYMVTGC(X2)PASDEIRRLPGDIQVVPIGVGPNANVQELERIGWPNAPILIQDFETLPREAPDLVLQR [FRETS-rVWF71]”, the solubility is > 250 µM.
